Measurements as given in the supplement of paper PMC9112550, “Optimization of the antimicrobial peptide Bac7 by deep mutational scanning” (BMC Biology, 2022).

System: Escherichia coli TOP10
Test: shrunken log2 fold change of peptide-encoding DNA abundance (4.5 h post-induction vs induction); higher = less antimicrobial activity (less host growth inhibition)
Conditions: time post-induction: 4.5 h; library: site-saturation at positions 5, 18, 19, 20
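Note: peptides expressed intracellularly from a pBAD plasmid library in pooled LB shake-flask culture, induced with 0.3% L-arabinose, DNA abundance read by NGS, three biological replicates, DESeq2 with apeglm shrinkage.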

Row | Sequence | shrunken log2 fold change
1 | RRIRGRPPRLPRPRPRPYAHPRP | 0.023
2 | RRIRGRPPRLPRPRPRPYAWPRP | 0.0018
3 | RRIRGRPPRLPRPRPRPYCHPRP | 0.054
4 | RRIRGRPPRLPRPRPRPYCIPRP | 0.174
5 | RRIRGRPPRLPRPRPRPYDDPRP | -0.199
6 | RRIRGRPPRLPRPRPRPYFHPRP | -0.462
7 | RRIRGRPPRLPRPRPRPYFIPRP | -0.336
8 | RRIRGRPPRLPRPRPRPYHNPRP | -0.267
9 | RRIRGRPPRLPRPRPRPYHVPRP | -0.0512
10 | RRIRGRPPRLPRPRPRPYIQPRP | -0.411
11 | RRIRGRPPRLPRPRPRPYKFPRP | -0.138
12 | RRIRGRPPRLPRPRPRPYKSPRP | -0.135
13 | RRIRGRPPRLPRPRPRPYKVPRP | -0.0404
14 | RRIRGRPPRLPRPRPRPYLAPRP | 0.398
15 | RRIRGRPPRLPRPRPRPYLIPRP | -0.0775
16 | RRIRGRPPRLPRPRPRPYMGPRP | -0.00228
17 | RRIRGRPPRLPRPRPRPYMIPRP | 0.0548
18 | RRIRGRPPRLPRPRPRPYMLPRP | -0.0745
19 | RRIRGRPPRLPRPRPRPYNVPRP | -0.126
20 | RRIRGRPPRLPRPRPRPYPIPRP | 3.7
21 | RRIRGRPPRLPRPRPRPYPSPRP | -0.111
22 | RRIRGRPPRLPRPRPRPYRIPRP | 0.178

Row | Sequence | shrunken log2 fold change
23 | RRIRGRPPRLPRPRPRPYSFPRP | 0.0271
24 | RRIRGRPPRLPRPRPRPYSGPRP | -0.0221
25 | RRIRGRPPRLPRPRPRPYTWPRP | 0.0845
26 | RRIRGRPPRLPRPRPRPYWKPRP | -0.0176
27 | RRIRHRPPRLPRPRPRPAAFPRP | 0.068
28 | RRIRHRPPRLPRPRPRPAANPRP | -0.0763
29 | RRIRHRPPRLPRPRPRPAARPRP | 0.168
30 | RRIRHRPPRLPRPRPRPAAWPRP | 0.465
31 | RRIRHRPPRLPRPRPRPAAYPRP | -0.206
32 | RRIRHRPPRLPRPRPRPADSPRP | -0.039
33 | RRIRHRPPRLPRPRPRPAESPRP | -0.218
34 | RRIRHRPPRLPRPRPRPAFNPRP | -0.313
35 | RRIRHRPPRLPRPRPRPAFVPRP | 0.113
36 | RRIRHRPPRLPRPRPRPAFYPRP | -0.332
37 | RRIRHRPPRLPRPRPRPAGQPRP | -0.00146
38 | RRIRHRPPRLPRPRPRPAICPRP | -0.218
39 | RRIRHRPPRLPRPRPRPAKGPRP | 0.0449
40 | RRIRHRPPRLPRPRPRPAKMPRP | 0.0344
41 | RRIRHRPPRLPRPRPRPAPAPRP | 0.289
42 | RRIRHRPPRLPRPRPRPAPCPRP | 0.288
43 | RRIRHRPPRLPRPRPRPAPDPRP | -0.0192
44 | RRIRHRPPRLPRPRPRPAPNPRP | 0.497

Row | Sequence | shrunken log2 fold change
45 | RRIRHRPPRLPRPRPRPAQKPRP | -0.0418
46 | RRIRHRPPRLPRPRPRPAQSPRP | -0.0382
47 | RRIRHRPPRLPRPRPRPARYPRP | 0.0518
48 | RRIRHRPPRLPRPRPRPASAPRP | 0.0183
49 | RRIRHRPPRLPRPRPRPAWQPRP | 0.0329
50 | RRIRHRPPRLPRPRPRPAYGPRP | -0.075
51 | RRIRHRPPRLPRPRPRPCASPRP | -0.028
52 | RRIRHRPPRLPRPRPRPCCVPRP | -0.193
53 | RRIRHRPPRLPRPRPRPCDQPRP | -0.000946
54 | RRIRHRPPRLPRPRPRPCEHPRP | -0.00546
55 | RRIRHRPPRLPRPRPRPCEVPRP | -0.00674
56 | RRIRHRPPRLPRPRPRPCFVPRP | 0.0216
57 | RRIRHRPPRLPRPRPRPCFYPRP | -0.356
58 | RRIRHRPPRLPRPRPRPCKFPRP | 0.0809
59 | RRIRHRPPRLPRPRPRPCMWPRP | -0.193
60 | RRIRHRPPRLPRPRPRPCPIPRP | -0.0539
61 | RRIRHRPPRLPRPRPRPCPNPRP | -0.00414
62 | RRIRHRPPRLPRPRPRPCQYPRP | 0.0163
63 | RRIRHRPPRLPRPRPRPCRCPRP | -0.271
64 | RRIRHRPPRLPRPRPRPCRGPRP | 0.00172
65 | RRIRHRPPRLPRPRPRPCSAPRP | -0.473
66 | RRIRHRPPRLPRPRPRPCSIPRP | -0.0189

Row | Sequence | shrunken log2 fold change
67 | RRIRHRPPRLPRPRPRPCSKPRP | -0.0875
68 | RRIRHRPPRLPRPRPRPCTQPRP | -0.367
69 | RRIRHRPPRLPRPRPRPCWAPRP | 0.00936
70 | RRIRHRPPRLPRPRPRPCWMPRP | -0.032
71 | RRIRHRPPRLPRPRPRPCYCPRP | -0.617
72 | RRIRHRPPRLPRPRPRPDASPRP | 0.221
73 | RRIRHRPPRLPRPRPRPDCGPRP | -0.131
74 | RRIRHRPPRLPRPRPRPDCNPRP | -0.18
75 | RRIRHRPPRLPRPRPRPDDHPRP | 0.0155
76 | RRIRHRPPRLPRPRPRPDFHPRP | -0.769
77 | RRIRHRPPRLPRPRPRPDHHPRP | 0.0587
78 | RRIRHRPPRLPRPRPRPDHLPRP | -0.0237
79 | RRIRHRPPRLPRPRPRPDIHPRP | -0.171
80 | RRIRHRPPRLPRPRPRPDLNPRP | 0.015
81 | RRIRHRPPRLPRPRPRPDMTPRP | -0.06
82 | RRIRHRPPRLPRPRPRPDPKPRP | 0.0039
83 | RRIRHRPPRLPRPRPRPDQLPRP | -0.51
84 | RRIRHRPPRLPRPRPRPDREPRP | 0.0062
85 | RRIRHRPPRLPRPRPRPDRRPRP | -0.118
86 | RRIRHRPPRLPRPRPRPDRYPRP | -0.236
87 | RRIRHRPPRLPRPRPRPDSDPRP | 0.0112
88 | RRIRHRPPRLPRPRPRPDTIPRP | -0.0628

Row | Sequence | shrunken log2 fold change
89 | RRIRHRPPRLPRPRPRPDVCPRP | -0.258
90 | RRIRHRPPRLPRPRPRPDVIPRP | 0.0849
91 | RRIRHRPPRLPRPRPRPDWGPRP | 0.0592
92 | RRIRHRPPRLPRPRPRPDYMPRP | -0.336
93 | RRIRHRPPRLPRPRPRPEACPRP | -0.0115
94 | RRIRHRPPRLPRPRPRPEAGPRP | 0.264
95 | RRIRHRPPRLPRPRPRPEAHPRP | -0.00101
96 | RRIRHRPPRLPRPRPRPECDPRP | -0.0404
97 | RRIRHRPPRLPRPRPRPEDMPRP | -0.208
98 | RRIRHRPPRLPRPRPRPEEEPRP | -0.0106
99 | RRIRHRPPRLPRPRPRPEFFPRP | 0.0155
100 | RRIRHRPPRLPRPRPRPEGTPRP | -0.0282
101 | RRIRHRPPRLPRPRPRPEKIPRP | 0.0327
102 | RRIRHRPPRLPRPRPRPEKSPRP | 0.0275
103 | RRIRHRPPRLPRPRPRPELDPRP | 0.6
104 | RRIRHRPPRLPRPRPRPELKPRP | 0.127
105 | RRIRHRPPRLPRPRPRPELYPRP | -0.215
106 | RRIRHRPPRLPRPRPRPEPFPRP | 0.0638
107 | RRIRHRPPRLPRPRPRPEPTPRP | 0.179
108 | RRIRHRPPRLPRPRPRPEQWPRP | 0.0101
109 | RRIRHRPPRLPRPRPRPERTPRP | 0.0203
